Results reported in publication PMC4060006, “SM proteins Sly1 and Vps33 co-assemble with Sec17 and SNARE complexes to oppose SNARE disassembly by Sec18” (eLife, 2014).

B3: Vps33 (natural protein, S. cerevisiae, UniProt P20795 1-691, looked up)
chain: MNRFWNTKKFSLTNADGLCATLNEISQNDEVLVVQPSVLPVLNSLLTFQDLTQSTPVRKITLLDDQLSDDLPSALGSVPQMDLIFLIDVRTSLRLPPQLLDAAQKHNLSSLHIIYCRWKPSFQNTLEDTEQWQKDGFDLNSKKTHFPNVIESQLKELSNEYTLYPWDLLPFPQIDENVLLTHSLYNMENVNMYYPNLRSLQSATESILVDDMVNSLQSLIFETNSIITNVVSIGNLSKRCSHLLKKRIDEHQTENDLFIKGTLYGERTNCGLEMDLIILERNTDPITPLLTQLTYAGILDDLYEFNSGIKIKEKDMNFNYKEDKIWNDLKFLNFGSIGPQLNKLAKELQTQYDTRHKAESVHEIKEFVDSLGSLQQRQAFLKNHTTLSSDVLKVVETEEYGSFNKILELELEILMGNTLNNDIEDIILELQYQYEVDQKKILRLICLLSLCKNSLREKDYEYLRTFMIDSWGIEKCFQLESLAELGFFTSKTGKTDLHITTSKSTRLQKEYRYISQWFNTVPIEDEHAADKITNENDDFSEATFAYSGVVPLTMRLVQMLYDRSILFHNYSSQQPFILSREPRVSQTEDLIEQLYGDSHAIEESIWVPGTITKKINASIKSNNRRSIDGSNGTFHAAEDIALVVFLGGVTMGEIAIMKHLQKILGKKGINKRFIIIADGLINGTRIMNSIS
notes: Vps33, SM protein of the vacuole, S. cerevisiae; also called vacuole SM protein; late endolysosomal SM; source: insect cells, Baculovirus system, purified

Experiments:
Conditions in all cases: both partners purified
[1] = biological target: T1, Sly1 (full length, aa1-667) (S. cerevisiae, UniProt P22213 1-666); assay: pull-down; SNARE complexes (500 nM) on immobilised Qa-SNARE pre-incubated with Sec17 (20 µM) and Sly1 (10 µM) or Vps33 (2.5 µM) 60 min at 30°C in Disassembly Buffer (SM Assay Buffer, 1 mM ATP, 2 mM MgCl2), then Sec18 (300 nM); what stayed on the resin after complete disassembly, SDS-PAGE
T1 construct: Sly1, Golgi SM protein, S. cerevisiae, printed as full-length aa1-667; construct His6-(tev)-Sly1; as I recall the UniProt entry has 666 residues; the printed 667 may count the stop codon; also called His6-Sly1; Golgi SM protein; source: E. coli (pRIL plasmid), purified (Ni-NTA)
T1 sequence (looked up): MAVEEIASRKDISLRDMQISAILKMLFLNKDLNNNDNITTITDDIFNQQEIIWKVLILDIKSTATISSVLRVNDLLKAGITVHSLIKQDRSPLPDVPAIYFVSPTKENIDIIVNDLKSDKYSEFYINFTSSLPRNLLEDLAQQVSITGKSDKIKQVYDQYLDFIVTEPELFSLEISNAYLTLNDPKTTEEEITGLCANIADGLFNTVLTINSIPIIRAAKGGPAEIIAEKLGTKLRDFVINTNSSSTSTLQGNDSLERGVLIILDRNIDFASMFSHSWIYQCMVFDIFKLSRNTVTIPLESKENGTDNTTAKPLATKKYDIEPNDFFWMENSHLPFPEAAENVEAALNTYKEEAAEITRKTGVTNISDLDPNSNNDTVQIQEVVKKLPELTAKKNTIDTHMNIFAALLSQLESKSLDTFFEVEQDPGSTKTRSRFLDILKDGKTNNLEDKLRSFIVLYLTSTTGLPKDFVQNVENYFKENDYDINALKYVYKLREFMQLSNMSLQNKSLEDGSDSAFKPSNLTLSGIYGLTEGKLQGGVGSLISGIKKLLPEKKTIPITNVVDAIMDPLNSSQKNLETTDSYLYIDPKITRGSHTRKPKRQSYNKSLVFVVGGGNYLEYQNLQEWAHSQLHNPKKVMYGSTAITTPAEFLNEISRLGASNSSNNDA

[2] = biological target: T2, His6-Sec22 (soluble domain, aa1-188) (S. cerevisiae, UniProt P22214 1-188); assay: pull-down; re-assembly with added SNAREs: as a9, but soluble Qb, Qc and R-SNAREs (~3 µM each) added along with the EDTA quench, 30 min at 30°C
T2 construct: Sec22, Golgi R-SNARE, S. cerevisiae, soluble domain aa1-188; also called Golgi R-SNARE; source: E. coli (pRIL plasmid), purified (Ni-NTA); not shown: His6, N-terminal, kept
T2 sequence (looked up): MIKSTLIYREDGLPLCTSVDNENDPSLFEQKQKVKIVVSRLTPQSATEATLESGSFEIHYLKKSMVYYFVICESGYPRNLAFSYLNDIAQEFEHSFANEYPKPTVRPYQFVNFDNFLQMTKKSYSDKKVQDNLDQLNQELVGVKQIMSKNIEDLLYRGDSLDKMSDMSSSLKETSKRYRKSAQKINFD

Vps33 = biological target: B3; assay: pull-down; SNARE complexes (500 nM) on immobilised Qa-SNARE pre-incubated with Sec17 (20 µM) and Sly1 (10 µM) or Vps33 (2.5 µM) 60 min at 30°C in Disassembly Buffer (SM Assay Buffer, 1 mM ATP, 2 mM MgCl2), then Sec18 (300 nM); what stayed on the resin after complete disassembly, SDS-PAGE
[3] = biological target: T3, Sec17–vacuole SNARE complex (Sec17 bound to the vacuole SNARE complex on Vam3-GST) (S. cerevisiae, UniProt Q12241 1-264; Q04338 1-194; P32912 190-316; Q12255 1-231; P32602 1-292); assay: pull-down; quantitative: immobilised SNARE complex, SM concentration varied, with or without Sec17, 30°C; SYPRO Ruby with standard curves; fractional saturation against free SM, one-site model; apparent (Kdobs), non-equilibrium measurements
T3 construct: Vam3, Qa-SNARE, S. cerevisiae, aa1-264; Vti1, Qb-SNARE, S. cerevisiae, aa1-194; Vam7, Qc-SNARE, S. cerevisiae, SNARE domain aa190-316; Nyv1, R-SNARE, S. cerevisiae, aa1-231; Sec17, S. cerevisiae; in most experiments Sec17 and the SM were added together to the immobilised SNARE complex; also called SNARE–Sec17 complex; Sec17–SNARE complex; source: assembled …
T3 sequence (Q04338 1-194, chain 2 of 4, one chain of several): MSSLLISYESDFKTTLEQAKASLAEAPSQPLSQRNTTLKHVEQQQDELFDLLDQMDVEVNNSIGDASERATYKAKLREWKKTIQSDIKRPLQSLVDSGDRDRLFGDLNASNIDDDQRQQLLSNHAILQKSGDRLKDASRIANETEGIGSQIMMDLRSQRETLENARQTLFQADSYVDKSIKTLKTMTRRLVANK
T3 sequence (P32912 190-316, chain 3 of 4, one chain of several): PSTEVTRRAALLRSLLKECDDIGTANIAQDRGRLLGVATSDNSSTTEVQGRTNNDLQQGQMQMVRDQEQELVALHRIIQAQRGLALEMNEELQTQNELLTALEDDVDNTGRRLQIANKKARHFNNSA
T3 sequence (Q12255 1-231, chain 4 of 4, one chain of several): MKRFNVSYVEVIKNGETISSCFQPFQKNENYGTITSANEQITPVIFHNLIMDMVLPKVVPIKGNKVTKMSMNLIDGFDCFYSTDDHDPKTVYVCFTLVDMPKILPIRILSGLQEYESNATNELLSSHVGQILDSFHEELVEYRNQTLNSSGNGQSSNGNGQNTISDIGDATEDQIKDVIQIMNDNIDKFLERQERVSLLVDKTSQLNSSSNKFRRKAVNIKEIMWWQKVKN

[4] = biological target: T4, vacuole SNARE complex assembled on immobilized Vam3-GST (S. cerevisiae, UniProt Q12241 1-264; Q04338 1-194; P32912 190-316; Q12255 1-231); assay: as above
T4 construct: Vam3, Qa-SNARE, S. cerevisiae, aa1-264; Vti1, Qb-SNARE, S. cerevisiae, aa1-194; Vam7, Qc-SNARE, S. cerevisiae, SNARE domain aa190-316; Nyv1, R-SNARE, S. cerevisiae, aa1-231; quaternary SNARE bundle, no membranes; also called vacuolar SNARE complex; SNARE bundle; source: assembled on glutathione sepharose from proteins made in E. coli; not shown: GST, C-terminal, …
T4 sequence (Q04338 1-194, chain 2 of 4, one chain of several): as the sequence (Q04338 1-194, chain 2 of 4, one chain of several) above
T4 sequence (P32912 190-316, chain 3 of 4, one chain of several): as the sequence (P32912 190-316, chain 3 of 4, one chain of several) above
T4 sequence (Q12255 1-231, chain 4 of 4, one chain of several): as the sequence (Q12255 1-231, chain 4 of 4, one chain of several) above

[5] = biological target: T3, Sec17–vacuole SNARE complex (Sec17 …); assay: pull-down; stoichiometry: complexes assembled on immobilised SNARE complex under saturation binding conditions; SDS-PAGE, SYPRO Ruby, band intensities against standard curves of the purified proteins; apparent

B1: GST-Sed5 SNARE domain (aa170-319) (domain or fragment, S. cerevisiae, UniProt Q01590 170-319, looked up)
chain: ANKDRWQKLTTDTGHAPADDQTQSNHAADLTTYNNSNPFMTSLLDESSEKNNNSSNQGELSFPQNDSQLMLMEEGQLSNNVYLQERNRAVETIESTIQEVGNLFQQLASMVQEQGEVIQRIDANVDDIDLNISGAQRELLKYFDRIKSNR
notes: Sed5, Golgi Qa-SNARE, S. cerevisiae, aa170-319, lacks the N-peptide, the Habc domain and the transmembrane domain; also called Golgi Qa-SNARE lacking N-peptide and Habc domain; not shown: GST, N-terminal, kept
B1: binds [1]; binds [2].

B2: Vam3-GST (cytoplasmic domain of Vam3, aa1-264) (domain or fragment, S. cerevisiae, UniProt Q12241 1-264, looked up)
chain: MSFFDIEAQSSKGNSQQEPQFSTNQKTKELSNLIETFAEQSRVLEKECTKIGSKRDSKELRYKIETELIPNCTSVRDKIESNILIHQNGKLSADFKNLKTKYQSLQQSYNQRKSLFPLKTPISPGTSKERKDIHPRTEAVRQDPESSYISIKVNEQSPLLHNEGQHQLQLQEEQEQQQQGLSQEELDFQTIIHQERSQQIGRIHTAVQEVNAIFHQLGSLVKEQGEQVTTIDENISHLHDNMQNANKQLTRADQHQRDRNKCGK
notes: Vam3, vacuole Qa-SNARE, S. cerevisiae, cytoplasmic domain aa1-264, no transmembrane domain; TEV site between SNARE and GST; also called Vam3 cytoplasmic domain; vacuole Qa-SNARE; not shown: GST, C-terminal, kept
B2: binds (Vps33).

With B3 the Kd [3] was 0.3 ± 0.01 µM, the Kd [4] was 1.6 ± 0.1 µM and the “stoichiometry N” value [5] was 1 Vps33 per SNARE complex.
